B1: OR4K15 (parent)
chain: GUUAACGGUCAUAGGCCAUGGAAACUAGGAGCACCAUUUCGCUGCCAGUGAAGAAAUGAACAAAGAAAAUCUGGGCCAGGCAGGCAUCAAAAGAAAUAGUCUUGCGCUCAACCAGAAAGUCUGUAAUCAUUUUAAGGGUA

The series covers variants of B1. The series can be described thus: self-cleavage, relative activity (ratio to wild type); higher = more cleavage; in vitro, sequencing; the parent is a self-cleaving ribozyme.
For the variant A22U U120A, the self-cleavage was 1.95. For U39C U72C, the self-cleavage was determined as 0.27.

U39C A135U: the self-cleavage is 1.73. In the case of A24G A90U, the self-cleavage turned out to be 1.65. The result for A24G A90C reads 0.33; that for G50C A116G, 0.9. Turning to C42U G44A, the self-cleavage came to 1.51.

For the variant U72A U131C, the self-cleavage is 0.14. On to A110G U132A, for which the self-cleavage came to 0.19. The result for A89G U108G reads 0.01; that for U37C U103C, 0.32; that for A51U U127A, 1.75. As for G106A A126G, the self-cleavage was found to be 0. The result for A129U U131C reads 0.96; that for U108A U139A, 0.04.

Consider A86U A98G, for which the self-cleavage worked out at 0.37. On to U70A A78U, for which the self-cleavage was 0.43. The same measure for U39C U122A: 1.58. The result for A55G C76A reads 0.55; that for A111C A140G, 0.01; that for A51U A82G, 0.68.

In the case of C71U A95U, the self-cleavage turned out to be 0.5. On to A51G A56G, for which the self-cleavage turned out to be 1.22. The result for A64U U131C reads 1.58; that for A60G U70C, 0.8. The result for G14U A111G reads 0.05; that for A4U U127C, 1.34; that for A63U A96U, 2.14. For C35U A86G, the self-cleavage is 0.68. As for C42U A54G, the self-cleavage was determined as 1.96. The result for A62G A110C reads 0.34; that for A63U A91U, 1.05; that for A13C G79U, 0.17. For the variant U2C U127A, the self-cleavage came out at 2.05.

A11G U139C: the self-cleavage was determined as 2.37. The result for A59G A111U reads 0.07; that for U38C A118G, 1.14. The result for G14A A89G reads 0.65. The result for A68U U120A reads 1.48; that for U9A A18G, 1.79. On to U12G A60G, for which the self-cleavage came to 1.59. On to U9A A59U, for which the self-cleavage was 1.81. The result for U38A A62G reads 1.19; that for U19C A111G, 0.03; that for C6A C10U, 0.25. The result for U9A A96G reads 1.16; that for A86U A129G, 2.26; that for A78C U132C, 0.33.

Take A51U A67G: the self-cleavage is 1.23. As for U97C A134G, the self-cleavage is 1.02.

For the variant A27G A116G, the self-cleavage worked out at 0.99.

In the case of A27U A52G, the self-cleavage is 1.91. The result for A60G C107U reads 0; that for A11C A69G, 1.7.

For the variant A92G U131A, the self-cleavage amounted to 1.33. The same measure for U2A A54G: 0.63; for A13U A114U: 0.07. The same measure for A11G A59G: 0.88; for U108C U122C: 0.01. With U39C A62G, the self-cleavage came out at 0.75.

Take C42U A60G: the self-cleavage amounted to 1.17.

A22G A67C: the self-cleavage stood at 1.6. For A54G U120A, the self-cleavage worked out at 1.89. For the variant C105U A135U, the self-cleavage amounted to 0.28. In the case of A63G A118U, the self-cleavage was 0.84. A18G U49C: the self-cleavage is 1.43. The result for U108C C112U reads 0.01; that for U3C A30G, 0.92; that for U3A U37C, 0.99. As for U39C C76A, the self-cleavage was determined as 0.13. A60U A82U: the self-cleavage was 0.45. The same measure for A22G U49C: 0.55; for U49C A67G: 1.2; for U39G A51G: 1.75.

As to U120C U122A, the self-cleavage was 0.26.

For A22U U49A, the self-cleavage is 1.78. The result for G74U C121A reads 0.36; that for A66G G83U, 0.61; that for G31A U132C, 1.72. The same measure for U49A A118U: 0.7.

Regarding A30G U132C, the self-cleavage was 1.36. As to A24C A47G, the self-cleavage was found to be 1.46. Regarding A78U U133A, the self-cleavage came to 0.72. The result for U3C A62U reads 1.22; that for G15A A92G, 1.65; that for U9C C46U, 1.03. Consider A22G U139A, for which the self-cleavage came to 1.14. The result for A51U C76U reads 0.33. The same measure for G7A A62C: 1.41. The same measure for U124G A125G: 0.6; for A86G U97A: 0.97. For A64G A110G, the self-cleavage worked out at 0.22. The same measure for A22G U108A: 0.01; for C32U A94G: 1.5.

U39C A59U: the self-cleavage was 1.98.

Regarding U19A A94G, the self-cleavage stood at 1.89. The same measure for A5G G104A: 0.03. The same measure for U12C A114U: 0.14; for A56U A126U: 0.81; for A92U A126G: 1.18.

Consider A22G C46U, for which the self-cleavage was found to be 1.36. The result for A18C reads 0.89; that for A90G U122C, 0.65. The result for A59G A125G reads 0.4; that for U9A U139A, 1.31; that for A64U U100A, 0.29. Take A36U A52G: the self-cleavage turned out to be 1.43.

On to G75U A117G, for which the self-cleavage was determined as 0.15. The result for U39C U57C reads 1.64; that for A52G A86C, 0.77. As to A111U A125G, the self-cleavage amounted to 0.01.

Regarding A60U A111G, the self-cleavage is 0.05. Consider U12G A82U, for which the self-cleavage is 0.3. For G7A A69U, the self-cleavage came to 1.79. The same measure for A24G A27G: 0.97; for A4G A96C: 0.67; for A27G U102A: 0.63. Turning to A23G A86U, the self-cleavage worked out at 1.25. The result for G20A A92G reads 2.46; that for G7U U12C, 0.79. The result for C16U A18U reads 1.52; that for C6U A52G, 0.59. The result for A33G U130A reads 1.1; that for U70C U131C, 0.65; that for A51G A59U, 1.74. Turning to U12A A96U, the self-cleavage stood at 1.67. In the case of U57A G136A, the self-cleavage was found to be 1.37.

A23G G74A: the self-cleavage is 0.14.

For the variant G8C U43C, the self-cleavage amounted to 2.42. With C32U A69G, the self-cleavage turned out to be 1.21.

As for A13G A78U, the self-cleavage was found to be 0.6. The same measure for A5G G15U: 0.82; for U87C U124C: 0.83. The result for A36C U87C reads 1.04; that for U87G A125G, 0.07.

In the case of A92C U131C, the self-cleavage came to 1.35.

On to A96U U122C, for which the self-cleavage amounted to 1.54. The same measure for A47G A94G: 0.82.

For C6G, the self-cleavage stood at 1.83. For C6U, the self-cleavage turned out to be 0.75. Consider U37G A55G, for which the self-cleavage came to 1.07. The same measure for C109U U120C: 0.15. The result for U26A A69G reads 1.5. The same measure for C77U A126U: 1.88; for U70A U139A: 0.23; for A4G A64G: 1.21. On to A23U U49A, for which the self-cleavage is 1.2. Turning to U3C A95G, the self-cleavage is 1.02.

As for A90G U100C, the self-cleavage turned out to be 2.32.

Take G21A A60G: the self-cleavage turned out to be 1.14.

On to A86G U122A, for which the self-cleavage came to 1.61. The result for A78G G106A reads 0.03; that for A47G A116G, 0.35.

In the case of A114G A129G, the self-cleavage is 0.07.

For the variant A59U A135G, the self-cleavage worked out at 1.33. In the case of C25U A129G, the self-cleavage came to 1.37. For the variant A78C G106A, the self-cleavage turned out to be 0.03. The result for A92C G115A reads 0.36; that for G31U U102A, 2.03.

With A54G U139C, the self-cleavage turned out to be 1.68.

As for G20U A94U, the self-cleavage is 2.23.

On to C46A A60U, for which the self-cleavage worked out at 1.27.

Take G80A A116G: the self-cleavage worked out at 0.03.

Consider U19A G75C, for which the self-cleavage was determined as 0.16.

Consider C34U A54G, for which the self-cleavage came to 1.6.

Regarding A62G C113U, the self-cleavage is 0.14.

For U9G A24G, the self-cleavage worked out at 1.4.
